Key:
[1] = molecular target: T1, Full length human CD40 (huCD40) on cells (human, UniProt P25942 21-277); assay: flow cytometry, human B cells
T1 construct: CD40 on human mature DCs, human B cells, Raji cells and HEK-Blue CD40L cells (stably expressing human CD40); also called TNFRSF5
Target sequence in this assay (P25942 21-277): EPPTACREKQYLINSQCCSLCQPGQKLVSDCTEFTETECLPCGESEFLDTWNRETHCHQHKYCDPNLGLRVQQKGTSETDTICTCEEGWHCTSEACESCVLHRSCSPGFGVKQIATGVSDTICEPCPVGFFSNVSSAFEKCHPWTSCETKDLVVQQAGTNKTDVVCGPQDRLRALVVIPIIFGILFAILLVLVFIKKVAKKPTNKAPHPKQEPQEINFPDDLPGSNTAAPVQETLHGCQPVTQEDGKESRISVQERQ

[2] = molecular target: T2, Macaca fascicularis (cyno) CD40 (cCD40) on cells (Macaca fascicularis (cynomolgus), UniProt P25942 21-277 (human entry)); assay: flow cytometry, cyno mature DCs
T2 construct: CD40 on cyno mature DCs
T2 chain: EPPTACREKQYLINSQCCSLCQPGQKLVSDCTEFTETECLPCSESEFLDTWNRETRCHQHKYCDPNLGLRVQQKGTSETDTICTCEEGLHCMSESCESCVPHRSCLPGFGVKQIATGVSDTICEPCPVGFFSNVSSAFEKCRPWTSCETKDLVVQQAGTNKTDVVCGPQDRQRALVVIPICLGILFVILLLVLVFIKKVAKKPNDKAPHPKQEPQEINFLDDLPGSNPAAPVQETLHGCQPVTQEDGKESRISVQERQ
Description: (§1) Human monocytes were isolated from either frozen/fresh PBMC using CD14 negative isolation kit per manufacturer's protocol (MACS Miltenyi). Cyno monocytes were isolated from fresh PBMC using CD14 positive isolation kit per manufacturer's protocol (MACS Miltenyi). To generate DCs, monocytes were cultured for 5 days in complete media RPMI (Invitrogen) in the presence of 100 ng/ml human GM-CSF and human IL-4 (Peprotech) and media was replenished every 2 days. On day 5, DCs were stimulated with 100 ng/ml LPS (Sigma) for 24 hours. Cells were then stained with each of the tested CD40 antibody at different concentration in flow cytometry buffer (PBS+1% FBS; BD Bioscience) in 100 μl volume for 30 minutes on ice followed with two washes with flow buffer. Cells were then stained for additional 30 minutes on ice with APC-conjugated anti human IgG (Jackson ImmunoResearch) at the recommended dilution 1:100 and washed twice with flow buffer. Cells were analyzed for percent positive and Mean Fluorescence Intensity (MFI) to determine the antibody binding using Fortessa (BD Bioscience).
(§2) The experiments were conducted using assays described above. 20 antibodies were characterized further based on their binding to human DCs, cyno DCs, Raji cells and HEK-Blue™ CD40L cells.

cyno CD40 (SPR analyte) [3] = molecular target: T3, cyno CD40 (SPR analyte) (Macaca fascicularis (cynomolgus), UniProt P25942 21-193 (human entry), limits assumed); assay: SPR ProteOn XPR36, mAb captured by anti-human IgG Fc, cyno CD40 as analyte, 25 C; mean of n = 3 (SD 0.07E-03)
T3 construct: also called cCD40-ECD
T3 chain: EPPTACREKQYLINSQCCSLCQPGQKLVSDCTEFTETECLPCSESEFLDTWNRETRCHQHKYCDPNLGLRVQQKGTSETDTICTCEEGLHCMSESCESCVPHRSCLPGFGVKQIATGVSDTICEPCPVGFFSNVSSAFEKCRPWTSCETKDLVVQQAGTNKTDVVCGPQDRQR
Description: (§3) Affinity measurements were performed using Surface Plasmon Resonance (SPR) using a ProteOn XPR36 system (BioRad). […] Approximately 5000 RU (response units) of mAbs were immobilized. The kinetic experiments were performed at 25° C. in running buffer (DPBS+0.01% P20+100 μg/ml BSA). To perform kinetic experiments, 200 RU of mAbs were captured followed by injections of analytes (human or cyno CD40) at 5 concentrations (in a 4-fold serial dilution). The association phase was monitored for 3 minutes at 50 μL/min, then followed by 15 minutes of buffer flow (dissociation phase). The chip surface was regenerated with two 18 second pulses of 100 mM H₃PO₄ (Sigma, Cat#7961) at 100 μL/min.
(§4) The collected data were processed using ProteOn Manager software. First, the data was corrected for background using inter-spots. Then, double reference subtraction of the data was performed by using the buffer injection for analyte injections. The kinetic analysis of the data was performed using a Langmuir 1:1 binding model. The result for each mAb was reported in the format of Ka (On-rate), Kd (Off-rate) and KD (equilibrium dissociation constant).

[4] = molecular target: T1, Full length human CD40 (huCD40) on cells; assay: cell-based or functional assay
[5] = molecular target: T1, Full length human CD40 (huCD40) on cells; assay: flow cytometry, human mature DCs
Description: as §1, §2

[6] = molecular target: T1, Full length human CD40 (huCD40) on cells; assay: flow cytometry, human DCs; separate experiment
cyno CD40 (SPR analyte) [7] = molecular target: T3, cyno CD40 (SPR analyte); assay: SPR ProteOn XPR36, mAb captured by anti-human IgG Fc, cyno CD40 as analyte, 25 C; mean of n = 3 (SD 0.24E-09)
Description: as §3, §4
(§5) The parameters reported in this table were obtained from a 1:1 Langmuir binding model for all samples. Affinity, KD=kd/ka.

human CD40 (SPR analyte) [8] = molecular target: T4, human CD40 (SPR analyte) (human, UniProt P25942 21-193); assay: SPR ProteOn XPR36, mAb captured by anti-human IgG Fc, CD40 as analyte, 25 C; mean of n = 5 (SD 1.51E-09); did not fit well to 1:1 model
T4 construct: also called huCD40-ECD
Description: as §3, §4, §5

[9] = molecular target: T1, Full length human CD40 (huCD40) on cells; assay: flow cytometry, HEK-Blue CD40L cells
human CD40 (SPR analyte) [10] = molecular target: T4, human CD40 (SPR analyte); assay: SPR ProteOn XPR36, mAb captured by anti-human IgG Fc, CD40 as analyte, 25 C; mean of n = 5 (SD 0.97E-03); did not fit well to 1:1 model
Description: as §3, §4, §5

[11] = molecular target: T1, Full length human CD40 (huCD40) on cells; assay: flow cytometry, HEK-Blue CD40L cells; separate experiment
cyno CD40 (SPR analyte) [12] = molecular target: T3, cyno CD40 (SPR analyte); assay: SPR ProteOn XPR36, mAb captured by anti-human IgG Fc, cyno CD40 as analyte, 25 C; mean of n = 3 (SD 1.02E+05)
Description: as §3, §4

[13] = molecular target: T1, Full length human CD40 (huCD40) on cells; assay: flow cytometry, human DCs
Target sequence in this assay (P25942 21-277): as the sequence (P25942 21-277) above

[14] = molecular target: T1, Full length human CD40 (huCD40) on cells; assay: flow cytometry, human B cells; separate experiment
[15] = molecular target: T1, Full length human CD40 (huCD40) on cells; assay: flow cytometry, Raji cells
human CD40 (SPR analyte) [16] = molecular target: T4, human CD40 (SPR analyte); assay: SPR ProteOn XPR36, mAb captured by anti-human IgG Fc, CD40 as analyte, 25 C; mean of n = 5 (SD 1.83E+05); did not fit well to 1:1 model
Description: as §3, §4, §5

[17] = molecular target: T1, Full length human CD40 (huCD40) on cells; assay: flow cytometry, HEK-Blue CD40L cells; remark: listed apart in the source
Target sequence in this assay (P25942 21-277): as the sequence (P25942 21-277) above

[18] = molecular target: T1, Full length human CD40 (huCD40) on cells; assay: cell-based or functional assay; remark: listed apart in the source
[19] = molecular target: T1, Full length human CD40 (huCD40) on cells; assay: cell-based or functional assay; remark: listed apart in the source
human CD40 (SPR analyte) [20] = molecular target: T4, human CD40 (SPR analyte); assay: SPR ProteOn XPR36, mAb captured, CD40 as analyte, 25 C; lower end of the range of n = 2
Description: as §3, §4, §5

human CD40 (SPR analyte) [21] = molecular target: T4, human CD40 (SPR analyte); assay: SPR ProteOn XPR36, mAb captured, CD40 as analyte, 25 C; upper end of the range of n = 2; upper end of the range of the n = 2 replicates
Description: as §3, §4, §5

cyno CD40 (SPR analyte) [22] = molecular target: T3, cyno CD40 (SPR analyte); assay: SPR ProteOn XPR36, mAb captured, cyno CD40 as analyte, 25 C; did not fit well to 1:1 model
Description: as §3, §4, §5

human CD40 (SPR analyte) [23] = molecular target: T4, human CD40 (SPR analyte); assay: SPR ProteOn XPR36, mAb captured, CD40 as analyte, 25 C; lower end of the range of n = 2; lower end of the range of the n = 2 replicates
Description: as §3, §4, §5

human CD40 (SPR analyte) [24] = molecular target: T4, human CD40 (SPR analyte); assay: SPR ProteOn XPR36, mAb captured, CD40 as analyte, 25 C; upper end of the range of n = 2
Description: as §3, §4, §5

human CD40 (SPR analyte) [25] = molecular target: T4, human CD40 (SPR analyte); assay: SPR ProteOn XPR36, mAb captured, CD40 as analyte, 25 C; average of n = 2; did not fit well to 1:1 model
Description: as §3, §4, §5

B1: C40M9 (antibody, human IgG1, lambda, V domains shown)
VH: QLQLQESGPGLVKPSEILSLTCTVSGGSISSSSYYWGWIRQPPGKGLEWIGNIYYRGDTYYSPSLKSRVTISVDTSKNQFSLKLNSVTAADTAVYYCAKGFRFDYWGQGTLVTVSS
VL: QSALTQPPSASGSPGQSVTISCTGTSSDVGGYNYVSWYQQHPGKAPKLMIYEVSKRPSGVPDRFSGSKSGNTASLTVSGLQAEDEADYYCSSYAGSNNLVFGGGTKLTVLG
EC50 [1]: 60.9 ng/mL | EC50 [2]: 45.1 ng/mL | koff (cyno CD40 (SPR analyte) [3]): 0.00126 s⁻¹ | B cells EC50, CD23 surface expression, with cross-linker [4]: 2.87 ng/mL | B cells EC50, CD80 surface expression, with cross-linker [4]: 13.1 ng/mL | B cells EC50, CD83 surface expression, with cross-linker [4]: 0.00668 ng/mL | B cells EC50, CD86 surface expression, with cross-linker [4]: 0.0109 ng/mL | B cells EC50, HLA-DR surface expression, with cross-linker [4]: 0.012 ng/mL | EC50 [5]: 123 ng/mL | EC50 [6]: 46.2 ng/mL | Kd (cyno CD40 (SPR analyte) [7]): 1.42 nM | Kd (human CD40 (SPR analyte) [8]): 4.09 nM | EC50 [9]: 94.2 ng/mL | koff (human CD40 (SPR analyte) [10]): 0.00285 s⁻¹ | EC50 [11]: 615 ng/mL | kon (cyno CD40 (SPR analyte) [12]): 901000 M⁻¹ s⁻¹ | EC50 [13]: 152 ng/mL | EC50 [14]: 19.1 ng/mL | EC50 [15]: 57.1 ng/mL | kon (human CD40 (SPR analyte) [16]): 727000 M⁻¹ s⁻¹ | EC50 [17]: 143 ng/mL | DC EC50, CD80 surface expression, with cross-linker [18]: 27.7 ng/mL | DC EC50, CD83 surface expression, with cross-linker [18]: 39.8 ng/mL | DC EC50, CD86 surface expression, with cross-linker [18]: 103 ng/mL | DC EC50, HLA-DR surface expression, with cross-linker [18]: 79.7 ng/mL | EC50, Human B cells (CD83) [19]: 0.766 ng/mL | EC50, Human B cells (CD83), separate experiment [19]: 0.145 ng/mL | EC50, Human DC (HLA-DR) [19]: 118 ng/mL | EC50, Human DC (HLA-DR), separate experiment [19]: 16.7 ng/mL | EC50, agonistic activity on HEK-Blue™ CD40L cells (NF-κB/SEAP) [19]: 13.8 ng/mL | EC50, agonistic activity on HEK-Blue™ CD40L cells (NF-κB/SEAP), separate experiment [19]: 6.21 ng/mL

B2: C40M55 (antibody, human IgG1, kappa, V domains shown)
VH: QVQLVQSGAEVKKPGSSVKVSCKASGGTFSSYAISWVRQAPGQGLEWMGGIIPIFGTANYAQKFQGRVTITADESTSTAYMELSSLRSEDTAVYYCARDGYRRYGIGRYGFDYWGQGTLVTVSS
VL: not shown
notes: Full-length IgG1/kappa; from phage display
Kd (human CD40 (SPR analyte) [20]): 2.12 nM | koff (human CD40 (SPR analyte) [21]): 0.00217 s⁻¹ | kon (human CD40 (SPR analyte) [21]): 1.02e+06 M⁻¹ s⁻¹ | EC50 [2]: 21.8 ng/mL | Kd (cyno CD40 (SPR analyte) [22]): 2.59 nM | koff (cyno CD40 (SPR analyte) [22]): 0.00215 s⁻¹ | kon (cyno CD40 (SPR analyte) [22]): 831000 M⁻¹ s⁻¹ | koff (human CD40 (SPR analyte) [23]): 0.00188 s⁻¹ | kon (human CD40 (SPR analyte) [23]): 868000 M⁻¹ s⁻¹ | B cells EC50, CD23 surface expression, with cross-linker [4]: 61.6 ng/mL | B cells EC50, CD80 surface expression, with cross-linker [4]: 1.43 ng/mL | B cells EC50, CD83 surface expression, with cross-linker [4]: 1.25 ng/mL | B cells EC50, CD86 surface expression, with cross-linker [4]: 0.646 ng/mL | B cells EC50, HLA-DR surface expression, with cross-linker [4]: 0.437 ng/mL | EC50 [5]: 102 ng/mL | EC50 [9]: 63.1 ng/mL | Kd (human CD40 (SPR analyte) [24]): 2.17 nM | Kd (human CD40 (SPR analyte) [25]): 2.15 nM | koff (human CD40 (SPR analyte) [25]): 0.00203 s⁻¹ | kon (human CD40 (SPR analyte) [25]): 944000 M⁻¹ s⁻¹ | EC50 [15]: 46.1 ng/mL | DC EC50, CD80 surface expression, with cross-linker [18]: 61.6 ng/mL | DC EC50, CD83 surface expression, with cross-linker [18]: 103 ng/mL | DC EC50, CD86 surface expression, with cross-linker [18]: 198 ng/mL | DC EC50, HLA-DR surface expression, with cross-linker [18]: 81.1 ng/mL
